Patent US20030118612A1 (MAXYGEN, published 2003)

T1: human G-CSF receptor (human, UniProt Q99062 25-836)
T1 sequence (looked up): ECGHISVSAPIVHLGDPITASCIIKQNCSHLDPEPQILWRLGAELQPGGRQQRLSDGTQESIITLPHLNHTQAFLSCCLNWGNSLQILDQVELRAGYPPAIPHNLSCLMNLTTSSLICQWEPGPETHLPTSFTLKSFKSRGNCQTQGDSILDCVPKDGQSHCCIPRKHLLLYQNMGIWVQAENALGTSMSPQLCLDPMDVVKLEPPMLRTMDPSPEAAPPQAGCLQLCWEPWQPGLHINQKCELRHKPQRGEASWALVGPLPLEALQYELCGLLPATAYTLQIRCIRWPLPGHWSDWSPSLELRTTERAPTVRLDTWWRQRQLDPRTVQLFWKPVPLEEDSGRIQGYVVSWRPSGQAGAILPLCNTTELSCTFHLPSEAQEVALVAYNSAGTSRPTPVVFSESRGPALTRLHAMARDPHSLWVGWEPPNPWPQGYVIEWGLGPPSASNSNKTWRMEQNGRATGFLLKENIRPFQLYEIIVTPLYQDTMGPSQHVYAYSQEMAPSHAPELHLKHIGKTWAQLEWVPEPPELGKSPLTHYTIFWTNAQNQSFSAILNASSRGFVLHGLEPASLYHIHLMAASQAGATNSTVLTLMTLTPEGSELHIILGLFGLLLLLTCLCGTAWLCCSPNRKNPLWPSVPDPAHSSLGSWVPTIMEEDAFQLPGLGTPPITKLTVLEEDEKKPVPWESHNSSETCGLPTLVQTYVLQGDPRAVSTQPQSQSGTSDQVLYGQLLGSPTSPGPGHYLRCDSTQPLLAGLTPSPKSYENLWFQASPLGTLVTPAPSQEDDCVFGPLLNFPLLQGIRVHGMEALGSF


target: T1, human G-CSF receptor; experiment: cell-based or functional assay

Row | Binder | EC50 (% of hG-CSF) conjugated to SPA-PEG 5000 | EC50 (% of hG-CSF) non-conjugated
1 | G-CSF variant K16/23Q conjugated to SPA-PEG 5000 (ligand, SPA-PEG 5000 conjugated to the available PEGylation sites) TPLGPASSLPQSFLLQCLEQVRQIQGDGAALQEKLCATYKLCHPEELVLLGHSLGIPWAPLSSCPSQALQLAGCLSQLHSGLFLYQGLLQALEGISPELGPTLDTLQLDVADFATTIWQQMEELGMAPALQPTQGAMPAFASAFQRRAGGVLVASHLQSFLEVSYRVLRHLAQP | 1 % of hG-CSF | 
2 | G-CSF variant K16/34R, non-conjugated (ligand) TPLGPASSLPQSFLLRCLEQVRKIQGDGAALQERLCATYKLCHPEELVLLGHSLGIPWAPLSSCPSQALQLAGCLSQLHSGLFLYQGLLQALEGISPELGPTLDTLQLDVADFATTIWQQMEELGMAPALQPTQGAMPAFASAFQRRAGGVLVASHLQSFLEVSYRVLRHLAQP |  | 100 % of hG-CSF
3 | G-CSF variant K16/23/34R conjugated to SPA-PEG 5000 (ligand, SPA-PEG 5000 conjugated to the available PEGylation sites) TPLGPASSLPQSFLLRCLEQVRRIQGDGAALQERLCATYKLCHPEELVLLGHSLGIPWAPLSSCPSQALQLAGCLSQLHSGLFLYQGLLQALEGISPELGPTLDTLQLDVADFATTIWQQMEELGMAPALQPTQGAMPAFASAFQRRAGGVLVASHLQSFLEVSYRVLRHLAQP | 10 % of hG-CSF | 
4 | G-CSF variant K16/23/34R, non-conjugated (ligand) TPLGPASSLPQSFLLRCLEQVRRIQGDGAALQERLCATYKLCHPEELVLLGHSLGIPWAPLSSCPSQALQLAGCLSQLHSGLFLYQGLLQALEGISPELGPTLDTLQLDVADFATTIWQQMEELGMAPALQPTQGAMPAFASAFQRRAGGVLVASHLQSFLEVSYRVLRHLAQP |  | 50 % of hG-CSF
5 | G-CSF variant K16/34R conjugated to SPA-PEG 5000 (ligand, SPA-PEG 5000 conjugated to the available PEGylation sites) TPLGPASSLPQSFLLRCLEQVRKIQGDGAALQERLCATYKLCHPEELVLLGHSLGIPWAPLSSCPSQALQLAGCLSQLHSGLFLYQGLLQALEGISPELGPTLDTLQLDVADFATTIWQQMEELGMAPALQPTQGAMPAFASAFQRRAGGVLVASHLQSFLEVSYRVLRHLAQP | 10 % of hG-CSF | 
6 | G-CSF variant K16/40R conjugated to SPA-PEG 5000 (ligand, SPA-PEG 5000 conjugated to the available PEGylation sites) TPLGPASSLPQSFLLRCLEQVRKIQGDGAALQEKLCATYRLCHPEELVLLGHSLGIPWAPLSSCPSQALQLAGCLSQLHSGLFLYQGLLQALEGISPELGPTLDTLQLDVADFATTIWQQMEELGMAPALQPTQGAMPAFASAFQRRAGGVLVASHLQSFLEVSYRVLRHLAQP | 5 % of hG-CSF | 

Next, values leading:

Row | EC50 (% of hG-CSF) conjugated to SPA-PEG 5000 | EC50 (% of hG-CSF) non-conjugated | Binder
7 |  | 100 % of hG-CSF | G-CSF without N-terminal Histidine tag, non-conjugated (ligand) TPLGPASSLPQSFLLKCLEQVRKIQGDGAALQEKLCATYKLCHPEELVLLGHSLGIPWAPLSSCPSQALQLAGCLSQLHSGLFLYQGLLQALEGISPELGPTLDTLQLDVADFATTIWQQMEELGMAPALQPTQGAMPAFASAFQRRAGGVLVASHLQSFLEVSYRVLRHLAQP
8 |  | 50 % of hG-CSF | G-CSF variant K34/40R, non-conjugated (ligand) TPLGPASSLPQSFLLKCLEQVRKIQGDGAALQERLCATYRLCHPEELVLLGHSLGIPWAPLSSCPSQALQLAGCLSQLHSGLFLYQGLLQALEGISPELGPTLDTLQLDVADFATTIWQQMEELGMAPALQPTQGAMPAFASAFQRRAGGVLVASHLQSFLEVSYRVLRHLAQP
9 | 5 % of hG-CSF |  | G-CSF variant K34/40R conjugated to SPA-PEG 5000 (ligand, SPA-PEG 5000 conjugated to the available PEGylation sites) TPLGPASSLPQSFLLKCLEQVRKIQGDGAALQERLCATYRLCHPEELVLLGHSLGIPWAPLSSCPSQALQLAGCLSQLHSGLFLYQGLLQALEGISPELGPTLDTLQLDVADFATTIWQQMEELGMAPALQPTQGAMPAFASAFQRRAGGVLVASHLQSFLEVSYRVLRHLAQP
10 |  | 50 % of hG-CSF | G-CSF variant K16/40R, non-conjugated (ligand) TPLGPASSLPQSFLLRCLEQVRKIQGDGAALQEKLCATYRLCHPEELVLLGHSLGIPWAPLSSCPSQALQLAGCLSQLHSGLFLYQGLLQALEGISPELGPTLDTLQLDVADFATTIWQQMEELGMAPALQPTQGAMPAFASAFQRRAGGVLVASHLQSFLEVSYRVLRHLAQP
